Experimental data published in the supplement of paper PMC10567573.

B1: APBB1IP (parent)
chain: SQVSMWDQRWQDHQPLLPITDVP

Variants of: B1
Test: protein stability index of a GFP-peptide fusion (GPS, HEK-293T) (PSI 1-6); higher = more stable
Conditions: c terminus: native
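Also: lentivirally expressed fusions sorted by FACS into six bins by GFP to DsRed ratio, PSI derived from sequencing read proportions per bin multiplied by bin number.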

Protein stability index, by site and new letter:
I19: T 3.03; N 3.55
S4: T 2.23; N 2.92; A 2.84; M 2.57; Q 4.05; C 1.95; F 1.98; E 3.8; K 2.15
D21: Y 1.65; P 2.07; H 1.75; N 1.7; S 1.6; A 2.56; W 1.63
M5: R 3.34; P 3.15; S 2.5; Y 2.17; D 3.15; T 2.73; N 2.76; G 2.37; L 2.77
P15: A 2.23; C 2.18; Q 3.25; D 4.41; W 1.43; M 1.82; E 2.77; K 2.82; N 2.77; S 3.35; L 2.06; F 2.2
W10: N 3.39; C 3.12; V 2.17; H 3.14; P 3.68; K 3.75; L 2.51; D 3.44; Q 3.29
D12: S 2.1; I 1.75; N 2.17; L 2.44; R 1.34; Y 3.2; V 3.1; A 2.31; H 1.64; Q 2.06
W6: M 2.65; I 2.56; R 3.29; Q 3.48; H 2.51; F 2.55; Y 2.09; C 3.04; G 2.95; T 4.02; S 3.08; V 3.01
Q11: C 1.92; K 2.87; W 1.77; F 1.68; V 2.25; T 2.29; E 3.38
L17: A 3.32; Q 2.59; M 2.17; G 3.81; R 2.26; N 3.1; C 2.06; I 1.85; W 2.96; H 3.2
V3: L 2.04; N 2.49; Q 3.47; P 2.8; M 2.83; Y 2.27; C 1.91; R 2.43; A 3.18; E 2.9
Q2: Y 1.89; F 1.31; R 1.66; D 3.38; L 1.5; N 2.6; H 2.23; V 2.33; G 2.07; A 1.88; C 1.94; E 3.32
D7: C 2.37; L 1.72; I 1.04; F 1.23; G 1.49; E 2.85; R 1.77; Q 2.44; S 1.61; K 1.46; Y 2; P 1.96; H 1.68; M 1.44
Q14: M 2.15; F 2.25; L 2; W 2.23; S 2.38; N 2.89; K 2.28; D 2.74; P 2.74; V 2.23; Y 2.06
H13: A 3.06; Y 2.15; Q 2.43; V 2.47; M 1.99; T 2.94; S 2.94; D 3.17; F 1.88; R 2.58
S1: P 2.94; F 1.92; Y 4; L 1.36; R 2.23; V 2.85; H 2.46; W 3.14; C 2.69; Q 2.36; K 1.76; N 2.19; I 1.56; D 2.25
L16: T 2.92; G 3.07; N 3.54; W 2.23; R 2.61; V 2.54; K 3.08; Y 3.06; C 2.83
